Experimental findings from patent US20070192906A1 are described below.

The experiment concerns the target rice storage protein glutelin B1 (rice) (UniProt P14323).

Take pepsin (enzyme): the degradation by pepsin treatment (Western blot) was found to be 90 % degraded.
